Measured values: US20240034757A1 (OXFORD UNIVERSITY INNOVATION, published 2024)

What was measured:
Assay in all cases: BLI
CCL14_HUMAN = molecular target: T1, CCL14_HUMAN (human, UniProt Q16627 22-93)
T1 sequence: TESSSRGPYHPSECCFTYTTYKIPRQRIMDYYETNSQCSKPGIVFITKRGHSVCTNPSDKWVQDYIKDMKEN

CCL16_HUMAN = molecular target: T2, CCL16_HUMAN (human, UniProt O15467 24-120)
T2 sequence: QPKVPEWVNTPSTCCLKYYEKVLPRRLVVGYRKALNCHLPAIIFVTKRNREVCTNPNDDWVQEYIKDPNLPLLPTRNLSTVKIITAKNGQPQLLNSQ

CCL4_HUMAN = molecular target: T3, CCL4_HUMAN (human, UniProt P13236 24-92)
T3 sequence: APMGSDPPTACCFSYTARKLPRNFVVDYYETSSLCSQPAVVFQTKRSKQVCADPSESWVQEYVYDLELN

CCL1_HUMAN = molecular target: T4, CCL1_HUMAN (human, UniProt P22362 24-96)
T4 sequence: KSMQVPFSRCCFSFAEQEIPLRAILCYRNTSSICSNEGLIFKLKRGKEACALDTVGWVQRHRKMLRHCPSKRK

CCL8_HUMAN = molecular target: T5, CCL8_HUMAN (human, UniProt P80075 24-99)
T5 sequence (looked up): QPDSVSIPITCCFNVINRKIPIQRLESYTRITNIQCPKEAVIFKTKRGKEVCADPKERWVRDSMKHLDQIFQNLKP

CCL15_HUMAN = molecular target: T6, CCL15_HUMAN (human, UniProt Q16663 22-113)
T6 sequence: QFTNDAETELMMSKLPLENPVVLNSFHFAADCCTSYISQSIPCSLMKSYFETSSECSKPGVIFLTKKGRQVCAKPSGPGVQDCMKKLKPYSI

CCL22_HUMAN = molecular target: T7, CCL22_HUMAN (human, UniProt O00626 25-93)
T7 sequence: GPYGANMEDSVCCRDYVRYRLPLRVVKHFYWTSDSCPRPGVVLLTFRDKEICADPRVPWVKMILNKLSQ

CCL21_HUMAN = molecular target: T8, CCL21_HUMAN (human, UniProt O00585 24-134)
T8 sequence: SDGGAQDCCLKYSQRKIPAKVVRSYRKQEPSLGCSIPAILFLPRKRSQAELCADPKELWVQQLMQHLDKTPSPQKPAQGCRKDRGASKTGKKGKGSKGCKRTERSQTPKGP

CCL23_HUMAN = molecular target: T9, CCL23_HUMAN (human, UniProt P55773 22-120)
T9 sequence: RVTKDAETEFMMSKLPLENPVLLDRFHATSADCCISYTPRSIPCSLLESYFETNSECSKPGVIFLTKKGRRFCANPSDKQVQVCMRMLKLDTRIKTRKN

CCL28_HUMAN = molecular target: T10, CCL28_HUMAN (human, UniProt Q9NRJ3 23-127)
T10 sequence: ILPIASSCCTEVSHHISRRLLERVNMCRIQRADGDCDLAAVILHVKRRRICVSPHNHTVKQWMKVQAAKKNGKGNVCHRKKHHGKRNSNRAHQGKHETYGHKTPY

CCL2_HUMAN = CCL2_HUMAN (human, UniProt P13500 24-99)
Chain of CCL2_HUMAN (P13500 24-99 limits assumed): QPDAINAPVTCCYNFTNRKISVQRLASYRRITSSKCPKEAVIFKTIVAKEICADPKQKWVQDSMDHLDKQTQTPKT

CCL5_HUMAN = molecular target: T11, CCL5_HUMAN (human, UniProt P13501 24-91)
T11 sequence: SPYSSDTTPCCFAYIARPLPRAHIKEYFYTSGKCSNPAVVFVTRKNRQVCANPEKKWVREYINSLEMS

CCL13_HUMAN = CCL13_HUMAN (human, UniProt Q99616 24-98)
Chain of CCL13_HUMAN (Q99616 24-98 limits assumed): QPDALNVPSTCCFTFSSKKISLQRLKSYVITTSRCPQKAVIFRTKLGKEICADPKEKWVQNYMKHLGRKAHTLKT
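Note: biolayer interferometry binding readings, curves fitting with R² below 0.9 dropped, every experiment run at least three times.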

B1: P1243:G4S:P1156 (designed binder)
chain: RNHTEDNSTEYYDYEEARCACPARHLNNTNGTVLKLLGCHYFCNGTLCTAPDGYPCYNLTAQQVRTLTTYPNTSCAVGVCMKGTCVKNGTMEQCFKTPGGGGSADDDNELFTVQYCGMNCTKDEGGTWTGCTGKKEGCKCYHESGKNYGLCLSTEYTDFSQYGNPSDSEIEAAKPKRSDTLSH
B1 was tested, and the Kd (CCL14_HUMAN) was 1.99 nM, the binding result (CCL16_HUMAN) was “no binding (tested: 300 nM)” and the Kd (CCL4_HUMAN) was 19.4 nM. For the same binder, the binding result (CCL1_HUMAN) was “no binding (tested: 300 nM)”, the Kd (CCL8_HUMAN) was 381 nM and the Kd (CCL15_HUMAN) was 8.71 nM. The binding result (CCL22_HUMAN) was “no binding (tested: 300 nM)”, the Kd (CCL21_HUMAN) was 53.8 nM and the Kd (CCL23_HUMAN) was 0.632 nM. The binding result (CCL28_HUMAN) was “no binding (tested: 300 nM)”, the binding result (CCL2_HUMAN) was “no binding (tested: 300 nM)” and the Kd (CCL5_HUMAN) was 8.95 nM. The Kd (CCL13_HUMAN) was 1.33 nM.
